B1: human lung tissue nanobody Nb15 (VHH)
VHH: MQAQLAGQLQLVESGGGLVQPGGSLSVSCAVRGRDLDYYVIGWFRQAPGKEREGVSCINNSDDTTYYSDSVKGRFTISRDHAKNTVYLQMNNLKPEDTALYYCAADFDRLDFTVKAMCVMKFFYYWGQGTQVTVSSEPKTPKPQGPRGLAAAGAPVPYPDLEPRAA
B2: human lung tissue nanobody Nb43 (VHH)
VHH: MQAQLAVQLQLVESGGGLVQSGGSLRLSCAASGFTFNDYRMSWVRQAPGKGLEWVSDINSGGSSTYYADSVKGRFTVSRDNAKNTLYLQMNSLKPEDTAIYYCVALLGRGCSGLVQGAFGPWGQGTQVTVSSAHHSEDPGPRGLAAAGAPVPYPDPLEPRAA
B3: human lung tissue nanobody Nb11 (VHH)
VHH: MQAQLAGQLQLVESGGGLVQPGGSLRLSCTASKFHLDSYAVAWFRQTPGKEREAVSFINTSDDVTYFADSVKGRFTISRDNSKNTVYLQMNVLKPEDTSIYVCAAVRSPGPTGPSMQPMWVPDLYDYWGQGTQVTVSSAHHSEDPGPRGLAAAGAPVPYPDPLEPRAA
B4: human lung tissue nanobody Nb17 (VHH)
VHH: MQAQLAVQLQLVESGGGLVQPGGSLRLACAASGFNLDDYADIGWFRQAPGKERERVLCITISDGTTYYEDSGKGRFSISTDIAKNTVFLQMDSLKAEDTAVYYCAGDPAPFCLYNTYVPRTWGQGTQVTVSSAHHSEDPGPRGLAAAGAPVPYPDPLEPRAA
notes: also called No. 17

The first assay deals with T1, human pulmonary surfactant protein A (hSP-A) (human, UniProt Q8IWL2 21-248).
T1 construct: Native material from ground human lung tissue (supernatant of the lysate, called 'purified hSP-A'); It may hold both SP-A1 and SP-A2 gene products; also called human lung SP-A
T1 sequence (Q8IWL2 21-248 limits assumed): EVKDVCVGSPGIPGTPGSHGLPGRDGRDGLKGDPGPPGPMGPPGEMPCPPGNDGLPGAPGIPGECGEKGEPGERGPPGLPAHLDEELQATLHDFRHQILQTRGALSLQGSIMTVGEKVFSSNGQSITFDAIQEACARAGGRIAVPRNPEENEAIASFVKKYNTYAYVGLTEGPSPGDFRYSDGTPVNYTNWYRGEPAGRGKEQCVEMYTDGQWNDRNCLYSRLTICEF
The assay is described as follows: ELISA with purified nanobody.
With B1, the “OD450 relative to negative control” value is 2 times the negative control.

Regarding B2, the “OD450 relative to negative control” value was 2 times the negative control.

Turning to B3, the “OD450 relative to negative control” value is 2 times the negative control.

As to B4, the “OD450 relative to negative control” value was 2 times the negative control.

In another assay the target is T1, human pulmonary surfactant protein A …. Put plainly: indirect phage ELISA, plate coated with hSP-A, OD 450 nm.
Regarding B1, the “affinity value relative to negative control” value is 3 times the negative control.

For the molecule B2, the “affinity value relative to negative control” value is 3 times the negative control.

On to B3, for which the “affinity value relative to negative control” value is 3 times the negative control.

Turning to B4, the “affinity value relative to negative control” value is 3 times the negative control.

Values taken from patent publication US20170058021A1 (SHANGHAI PULMONARY HOSPITAL, published 2017).
